Assay [1] deals with HLA-B*40:01. As to the kind of experiment: IEDB peptide-MHC binding, purified MHC/competitive/radioactivity; filed as Kd, often an IC50 or EC50 that approximates it; ≥ and ≤ were set here for values at or beyond the usual limits of such assays.
In a further assay the target is HLA-A*30:01. Described as above.
In a further assay the target is HLA-A*23:01. Described as above. Conditions: source organism: Dengue virus 3 Martinique/1243/1999.
The next assay has as its target HLA-A*24:02. The description is as above.
A further assay concerns the target HLA-A*32:01. The description is as above.
Assay [2] has as its target HLA-A*02:01. Kind of assay: IEDB peptide-MHC binding, purified MHC/competitive/fluorescence; ≥ and ≤ were set here for values at or beyond the usual limits of such assays.
In the next assay the target is HLA-A*33:01. As to the kind of experiment: IEDB peptide-MHC binding, purified MHC/competitive/radioactivity; filed as Kd, often an IC50 or EC50 that approximates it; ≥ and ≤ were set here for values at or beyond the usual limits of such assays. Conditions: source organism: Dengue virus 1 Brazil/97-11/1997.
The next assay concerns the target HLA-A*01:01. Kind of assay: IEDB peptide-MHC binding, purified MHC/direct/fluorescence; filed as Kd, often an IC50 or EC50 that approximates it; ≥ and ≤ were set here for values at or beyond the usual limits of such assays.
The target in the next assay is HLA-B*15:01. The description is as above.
A further assay addresses HLA-A*11:01. Described as above.
For another assay, the target named is HLA-A*69:01. Described as above.
For a further assay, the target named is HLA-A*31:01. The description is as above. The settings on record: source organism: Haemophilus influenzae.
For assay [3], the target named is HLA-A*03:01. The assay is described as above.
In assay [4] the target is HLA-A*02:01. The description is as above. Conditions: source organism: SARS-CoV1.
The next assay deals with HLA-B*53:01. Kind of assay: IEDB peptide-MHC binding, purified MHC/competitive/radioactivity; filed as Kd, often an IC50 or EC50 that approximates it; ≥ and ≤ were set here for values at or beyond the usual limits of such assays. The settings on record: source organism: Dengue virus 2 Jamaica/1409/1983.
For assay [5], the target named is HLA-A*03:01. The assay is described as above. The settings on record: source organism: Dengue virus 2 Peru/IQT2913/1996.
Assay [6] has as its target HLA-B*40:01. As to the kind of experiment: IEDB peptide-MHC binding, purified MHC/direct/fluorescence; filed as Kd, often an IC50 or EC50 that approximates it; ≥ and ≤ were set here for values at or beyond the usual limits of such assays. Conditions: source organism: Homo sapiens.
A further assay has as its target HLA-B*27:05. The assay is described as above. Conditions: source organism: SARS-CoV1.
A further assay concerns the target HLA-A*26:01. The assay is described as above. The settings on record: source organism: Mycobacterium tuberculosis variant bovis.
Setting [7] is: source organism: Dengue virus 4 Dominica/814669/1981.
[8] abbreviates: source organism: Dengue virus 2 Peru/IQT2913/1996.
The mark [9] stands for this setting: source organism: Dengue virus 3 Martinique/1243/1999.
Setting [10] is: source organism: Vaccinia virus WR.
[11] abbreviates: source organism: Dengue virus 2 Jamaica/1409/1983.
[12] abbreviates: source organism: Dengue virus 1 Singapore/S275/1990.
Where [13] appears, read: source organism: Dengue virus 1 Brazil/97-11/1997.
The mark [14] stands for this setting: source organism: Dengue virus 4 Philippines/H241/1956.
Setting [15] is: source organism: Haemophilus influenzae.
[16] abbreviates: source organism: Zaire ebolavirus.
[17] abbreviates: source organism: Francisella tularensis subsp. holarctica LVS.

Where only a bound is given, the exact number is not on record here.

A word on the Kd: it is the free concentration of one partner at which half of the binding sites on the other are occupied at equilibrium, for simple one-to-one binding. Broadly, the IC50 is the concentration that gives 50% inhibition. A high value points to a need for much substance.

TEDDLQNEEL: in the assay with HLA-B*40:01 [1] (setting [7]), the dissociation constant (Kd) turned out to be 136 nM.

Turning to GLFPVSIPIT, the Kd with HLA-A*30:01 (setting [8]) amounted to 15900 nM.

PWLKNNQFCI: the Kd with HLA-A*23:01 was 102 nM; in the assay with HLA-A*24:02 (setting [9]), 224 nM.

Turning to KTSGYISSF, in the assay with HLA-A*32:01 (setting [10]), the Kd was 0.502 nM.

LLNNYTLKI: in the assay with HLA-A*32:01 (setting [10]), the Kd worked out at 25.4 nM.

For SLGGVFTSI, the Kd with HLA-A*32:01 (setting [11]) worked out at 294 nM.

Regarding WYMWLGARYL, the Kd is 18.2 nM with HLA-A*23:01 and 17.8 nM with HLA-A*24:02 (setting [9]).

Regarding AAIGKAWEEG, the dissociation constant (Kd) with HLA-A*32:01 (setting [12]) is no less than 69900 nM.

Regarding LSPETLVGV, the IC50 in the assay with HLA-A*02:01 [2] (source organism: Vaccinia virus) came out at 904 nM.

As to RARYKKMLK, the Kd with HLA-A*30:01 (setting [10]) stood at 1.04 nM.

In the case of NYILWENNI, the Kd with HLA-A*23:01 turned out to be 6.03 nM; with HLA-A*24:02 (setting [9]), 2.85 nM.

Regarding LFSYGTLII, the IC50 with HLA-A*02:01 [2] (source organism: Variola virus) is no less than 72600 nM.

For TIFTLTVAW, the Kd with HLA-A*32:01 (source organism: Dengue virus 3 Sri Lanka/1266/2000) worked out at 157 nM.

As for RVLLLTPEV, in the assay with HLA-A*30:01 (setting [10]), the Kd was found to be 48.6 nM.

Consider FMNEDHWFSR, for which the equilibrium dissociation constant (Kd) in the assay with HLA-A*32:01 (setting [13]) worked out at 7080 nM; in the assay with HLA-A*33:01, 13.2 nM.

In turn, SSEDLNGMI yielded a Kd with HLA-A*01:01 (source organism: Influenza A virus (A/chicken/Nanchang/7-010/2000(H3N6))) of no less than 20000 nM.

Turning to SILGIGTVL, the IC50 in the assay with HLA-A*02:01 [2] (source organism: Hepatitis C virus genotype 1) is no less than 100000 nM.

IHDFIDNPL showed an IC50 with HLA-A*02:01 [2] (source organism: Sudan ebolavirus) of no less than 103000 nM.

As to LSTRDGEPLM, in the assay with HLA-A*30:01 (setting [14]), the Kd stood at 1630 nM.

KALKINWYKK: the Kd in the assay with HLA-A*32:01 (source organism: Dengue virus 3 Singapore/8120/1995) worked out at 8040 nM.

Turning to HTSARLHSL, the Kd with HLA-A*30:01 (setting [10]) came out at 4.14 nM.

In the case of GTEMFRHGY, the dissociation constant (Kd) in the assay with HLA-B*15:01 (setting [15]) turned out to be 1160 nM; with HLA-A*11:01 (setting [15]), 166 nM; with HLA-A*01:01 (setting [15]), 241 nM; with HLA-A*69:01 (setting [15]), 4450 nM; in the assay with HLA-A*31:01 it was 8180 nM; with HLA-A*03:01 [3] (setting [15]), 2730 nM.

For HLIIQYPSV, the Kd in the assay with HLA-A*30:01 (setting [10]) amounted to 164 nM.

In the case of EDMLTVWNRV, the Kd with HLA-A*32:01 (setting [9]) is 13600 nM.

On to YVILTILTI, for which, in the assay with HLA-A*24:02 (setting [14]), the Kd was determined as 6010 nM.

PTVAPPAPV gave an IC50 with HLA-A*02:01 [2] (setting [16]) of no less than 171000 nM.

Consider RFGTSLLFL, for which, in the assay with HLA-A*24:02 (setting [7]), the dissociation constant Kd was determined as 673 nM.

On to KISISYIKL, for which the Kd with HLA-A*30:01 (setting [10]) came out at 292 nM.

On to ISYGGGWRFQ, for which, in the assay with HLA-A*32:01 (setting [13]), the Kd was no less than 56400 nM.

Turning to ILGLPTQTV, the Kd in the assay with HLA-B*15:01 (source organism: SARS-CoV1) amounted to 1600 nM; with HLA-A*02:01 [4] it was 402 nM.

As to EPPFGDSYII, the Kd in the assay with HLA-B*53:01 came to 363 nM.

Turning to DSMFLMTAT, the IC50 in the assay with HLA-A*02:01 [2] (source organism: Variola virus) stood at 4400 nM.

As for HMIVSRQEK, the Kd with HLA-A*30:01 (setting [8]) turned out to be 17.6 nM; with HLA-A*03:01 [5], 21.2 nM.

Regarding RQWFLDLPLP, the Kd with HLA-A*30:01 (setting [11]) was determined as 11600 nM.

LAVVSVSPLL: the equilibrium dissociation constant (Kd) in the assay with HLA-A*30:01 (setting [8]) was 11900 nM.

Turning to LARWGSFKK, the Kd in the assay with HLA-A*30:01 (setting [12]) worked out at 24.4 nM.

Regarding AGRLVRPFL, the equilibrium dissociation constant (Kd) with HLA-A*30:01 (setting [10]) came out at 252 nM.

For EHAGVISVL, the Kd with HLA-A*69:01 (source organism: Homo sapiens) came to 4640 nM; with HLA-B*40:01 [6], 364 nM.

In the assay with HLA-A*02:01 [2] (setting [16]), IAGVAGLIT displayed an IC50 of no less than 205000 nM.

For the sequence GLRNSLLVA, the Kd in the assay with HLA-A*30:01 (setting [10]) is 93.5 nM.

For the sequence SRYWEPEFY, the Kd with HLA-B*27:05 stood at 1190 nM.

With KTLAPFNFL, the dissociation constant Kd with HLA-A*30:01 (setting [10]) stood at 15 nM.

On to WRLSAQWQKG, for which the Kd with HLA-A*32:01 (setting [9]) was no less than 36000 nM.

PGPDNSTHN yielded an IC50 with HLA-A*02:01 [2] (setting [16]) of no less than 472000 nM.

MTTEDMLAVW: the Kd with HLA-B*53:01 came to 354 nM.

For the sequence AVYSICKFY, the Kd was 708 nM with HLA-A*11:01 (setting [17]) and 297 nM with HLA-A*03:01 [3] (setting [17]).

In the case of KGRISYYEM, in the assay with HLA-A*30:01 (setting [10]), the Kd was found to be 14.4 nM.

Sequence STASDTPSA returned a half-maximal inhibitory concentration (IC50) with HLA-A*02:01 [2] (setting [16]) of 12200 nM. In other words, the double-digit micromolar range.

For the sequence LEFEALGFMN, the Kd with HLA-B*40:01 [1] (setting [13]) came to 2660 nM.

In the assay with HLA-A*26:01, EVAGAGSGF had a Kd of 1.4 nM.

As to RTKFQNRAK, the Kd in the assay with HLA-A*30:01 (setting [10]) came to 0.159 nM.

These data come from the Immune Epitope Database (IEDB).
